Test results as given in paper PMC8317483.

How the values were obtained:
Nsp9COV19 (15N-labeled) [1] = target: T1, Nsp9COV19 (15N-labeled) (SARS-CoV-2, UniProt P0DTD1 4141-4253); experiment: 15N-1H HSQC NMR titration
Nsp9COV19 (15N-labeled) [2] = target: T1, Nsp9COV19 (15N-labeled); experiment: 15N-1H HSQC NMR titration; remark: listed apart in the source

| Binder | binding result (Nsp9COV19 (15N-labeled) [1]) | Kd (Nsp9COV19 (15N-labeled) [2]) |
| --- | --- | --- |
| AUUCG (ssRNA) [RNA.1 (5 nt ssRNA)] | binds |  |
| UUGGAGUU (ssRNA) [RNA.2 (8 nt ssRNA)] |  | ~550 µM |
